Measured values taken from article PMC2927781.

Experiments:
Assay in all cases: ITC; H3K4me2 peptide injected (19 x 2 ul) into the protein; 25 °C; 25 mM Tris pH 8.0, 100 mM NaCl; iTC 200; one-site model
[1] = target: PHD_(Pygo1)–HD1B9L complex (human) (UniProt Q9Y3Y4)
[2] = target: PHD_(Pygo1)–HD1_(BCL9) complex (6×His-tagged, PHD linked to HD1) (human) (UniProt Q9Y3Y4)
[3] = target: PHD_(Pygo2)–HD1B9L complex (6×His-tagged, PHD linked to HD1; ITC construct) (human) (UniProt Q9BRQ0)
[4] = target: PHD_(Pygo2)–HD1B9L complex with Pygo2 I344A (human) (UniProt Q9BRQ0)
[5] = target: PHD_(Pygo2)–HD1B9L complex with Pygo2 W377F (human) (UniProt Q9BRQ0)
[6] = target: PHD_(Pygo2)–HD1_(BCL9) complex (human) (UniProt Q9BRQ0)
[7] = target: free PHD finger of human Pygo1 (human)
[8] = target: free PHD finger of human Pygo2 (human)

“15-mer H3K4me2 histone tail peptide (histone H3 tail dimethylated at lysine 4)” showed a stoichiometry N [1] of 1, a fold increase in affinity over free PHD (Pygo1) [2] of 2 fold and a stoichiometry N [2] of 1. It also gave a Kd [3] of 1.83 µM, a stoichiometry N [3] of 1 and a Kd [4] of 19.5 µM. It also gave a Kd [5] of 11.5 µM, a stoichiometry N [6] of 1 and a Kd [7] of 5.93 µM. It also gave a stoichiometry N [7] of 1, a Kd [8] of 4.95 µM and a stoichiometry N [8] of 1.
